Experimental data reported in patent publication US20220204610A1, “PROTEIN BINDERS FOR IRHOM2” (NEW YORK SOCIETY FOR THE RELIEF OF THE RUPTURED AND …, priority 2019, published 2022).

Assays:
human iRhom2 [1] = target: T1, human iRhom2 (Homo sapiens, UniProt Q6PJF5); test: Peptide binding ELISA, target region determination (Example 9); settings: antibody 3 μg/ml; peptide coated at 10 μg/ml; normalized to IgM isotype control
T1 construct: made in house; host or cells: chemical synthesis (Fmoc solid phase peptide synthesis), no expression host
T1 sequence (Q6PJF5 431-459): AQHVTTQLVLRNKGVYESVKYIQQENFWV
Protocol: (§1) Next, peptide binding ELISA analyses were performed to verify whether the purified antibody 4H8-E3 of the invention recognizes any of the peptides that were administered to those animals the hybridoma clone 4H8 was derived from, thereby shedding light on the target region being recognized by the antibody 4H8-E3 of the invention.
(§2) In brief, on day 1, Nunc black MaxiSorp® 96-well plates (Thermo Fisher Scientific, USA) were coated overnight with 100 μl per well of single biotinylated peptides 1 to 11 as well as mixes of peptides 1 to 4 (Mix A), 5 to 7 (Mix B), and 8 to 11 (Mix C) at 10 μg/ml TBS each (thus, the final concentration of each peptide in mixes 1 to 4 and 8 to 11 was 2.5 μg/ml versus 3.3 μg/ml in mix 5 to 7) at 4° C. On day 2, peptide solutions were removed and MaxiSorp® plates were blocked with 300 μl per well of Pierce protein-free (TBS) blocking buffer (Thermo Fisher Scientific, USA) at room temperature for 1.5 hours. The blocking buffer was then removed and plates were washed 4 times with 350 μl per well of TBS-T (Carl Roth, Germany) on a 96-head plate washer (Tecan Group, Switzerland). Afterwards, 100 μl per well of TBS as blank control, mouse anti-biotin antibody (clone BN-34, Sigma-Aldrich, USA) at 0.3 μg/ml TBS as coating control, the purified antibody 4H8-E3 of the invention at 3 μg/ml TBS, and mouse IgM antibody (clone MOPC 104E, Sigma-Aldrich, USA) as isotype control to the purified antibody 4H8-E3 of the invention at 3 μg/ml TBS were added to wells pre-coated with single peptides 1 to 11 or respective mixes and incubated at room temperature for 4 hours. Subsequently, the plates were washed 4 times with 350 μl per well of TBS-T (Carl Roth, Germany) on a 96-head plate washer (Tecan Group, Switzerland) again and, protected from direct light, were incubated with 100 μl per well of AP-conjugated goat anti mouse IgG/IgG/IgM F(ab′)2 fragment (Sigma-Aldrich, USA) diluted 1:2,000 in TBS for 1 hour at room temperature. Following another round of 4 washing steps with 350 μl per well of TBS-T (Carl Roth, Germany) on a 96-head plate washer (Tecan Group, Switzerland) and careful removal of all buffer traces after the fourth cycle, 100 μl of AttoPhos substrate solution (Promega, USA) were added for incubation in the dark and at room temperature for 1 hour. Using an infinite M1000 PRO (Tecan Group, Switzerland) microplate reader, the fluorescence of each well was collected at an excitation wavelength of 435 nm and an emission wavelength of 555 nm.

human iRhom2 [2] = test: as above; settings: antibody 3 μg/ml, normalized to IgM isotype control
Protocol: as §1, §2

human iRhom2 [3] = target: T2, human iRhom2 (Homo sapiens, UniProt Q6PJF5); test: Peptide binding ELISA, binding specificity (Example 10), iRhom2 peptides; settings: antibody 3 μg/ml PBS; peptide coated at 10 μg/ml; normalized to IgM isotype control
T2 construct: the single peptide 3 resembling amino acids 431 to 459 of the extracellular juxtamembrane domain of human iRhom2; made in house; host or cells: chemical synthesis (Fmoc solid phase peptide synthesis), no expression host
T2 sequence (Q6PJF5 with tags, fused parts or gaps): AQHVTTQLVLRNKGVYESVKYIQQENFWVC
Protocol: (§3) Another series of peptide binding ELISA experiments was conducted to address the specificity of the purified antibody 4H8-E3 of the invention, i.e. to question whether this antibody specifically recognizes peptides, in particular peptide 3, resembling the extracellular juxtamembrane region adjacent to the TMD1 of human iRhom2, or whether the antibody 4H8-E3 of the invention also binds to peptides reflecting the homologous region of the closely related family member human iRhom1.
(§4) In brief, on day 1, Nunc black MaxiSorp® 96-well plates (Thermo Fisher Scientific, USA) were coated overnight with 100 μl per well of single biotinylated peptides 1 to 4, Mix A consisting of peptides 1 to 4, single biotinylated peptides 1b to 4b, and Mix D consisting of peptides 1b to 4b at 10 μg/m1 PBS each (thus, the final concentration of each peptide in both mixes was 2.5 μg/m1) at 4° C. On day 2, peptide solutions were removed and MaxiSorp® plates were blocked with 300 μl per well of Pierce protein-free (TBS) blocking buffer (Thermo Fisher Scientific, USA) at room temperature for 1.5 hours. […] Using an infinite M1000 PRO (Tecan Group, Switzerland) microplate reader, the fluorescence of each well was collected at an excitation wavelength of 435 nm and an emission wavelength of 555 nm.

human iRhom2 [4] = test: as above; settings: antibody 3 μg/ml PBS; peptides coated at 10 μg/ml; normalized to IgM isotype control
Protocol: as §3, §4

[5] = peptides coated individually or as mix

B1: 4H8-E3: Mouse IgM monoclonal antibody against the human iRhom2 juxtamembrane domain adjacent to TMD1; HC VD SEQ ID NO 33, LC VD SEQ ID NO 40 (antibody, V domains shown)
VH: EVQLQQSGPELVKPGASVKISCKASGYTFTDYYMNWVKQSHGKSLEWIGDINPNNGGTSYNQKFKGKATLTVDKSSNTAYMEFRSLTSEDSAVYYCARRGYYGVDYWGQGTTLTVSS
VL: NIVMTQSPKSMSMSVGERVTLNCKASENVGTYVSWYQQKPEQSPKLLIFGASNRYTGVPDRFIGSGFATDFTLTISSVQAEDLADYHCGQSYSYPYTFGGGTKLEIK
modifications: IgM constant regions; antibody sequence
binding to single peptide 3 (amino acids 431 to 459 of human iRhom2 juxtamembrane domain) (human iRhom2 [1]): strong binding
binding to Mix A consisting of peptides 1, 2, 3 and 4 (human iRhom2 [2]; biotinylated peptides coated at 10 μg/ml): strong binding
binding to peptides 5, 6 and 7 (large extracellular loop) (human iRhom2 [2]; [5]): no binding
binding to peptides 8, 9, 10 and 11 (C-terminal tail of human iRhom2) (human iRhom2 [2]; [5]): no binding
binding to single peptide 3 (amino acids 431 to 459 of human iRhom2) (human iRhom2 [3]): Binding
binding to Mix A consisting of peptides 1, 2, 3 and 4 (human iRhom2 [4]): Binding
